As usually defined, the koff is a measure of how fast the partners let go of each other. A lower koff goes with a long-lived complex. The term kon denotes the second-order rate constant of association. Low readings indicate slower complex formation, high ones faster complex formation. For orientation: Kd means the concentration at which binding is half-saturated. Read a high Kd as weaker binding.

The results in this text go back to patent publication US20250269045A1 (PHARMAESSENTIA, published 2025).

In experiment [1] the target is T1, granulocyte colony-stimulating factor receptor (G-CSFR) (human, UniProt Q99062 25-621, limits assumed).
T1 construct: also called GCSF receptor; G-CSF receptor
T1 sequence (looked up): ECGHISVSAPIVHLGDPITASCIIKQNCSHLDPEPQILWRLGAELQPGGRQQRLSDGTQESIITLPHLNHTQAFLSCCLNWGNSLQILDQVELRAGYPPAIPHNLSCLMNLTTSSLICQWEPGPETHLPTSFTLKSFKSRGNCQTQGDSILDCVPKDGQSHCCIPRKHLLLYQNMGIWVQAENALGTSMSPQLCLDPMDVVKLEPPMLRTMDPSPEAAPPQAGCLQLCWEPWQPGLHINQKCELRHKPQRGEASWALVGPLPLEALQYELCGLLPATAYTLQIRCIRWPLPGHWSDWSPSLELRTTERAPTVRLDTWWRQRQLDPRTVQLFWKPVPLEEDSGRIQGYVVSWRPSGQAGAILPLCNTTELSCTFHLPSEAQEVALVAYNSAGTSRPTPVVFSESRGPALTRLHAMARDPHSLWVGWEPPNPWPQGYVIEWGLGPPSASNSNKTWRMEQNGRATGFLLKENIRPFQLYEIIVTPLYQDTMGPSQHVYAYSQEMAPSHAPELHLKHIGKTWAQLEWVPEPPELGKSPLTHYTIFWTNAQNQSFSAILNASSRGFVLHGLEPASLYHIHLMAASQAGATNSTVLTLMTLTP
Put plainly: SPR (Biacore CM5), G-CSFR immobilised, analyte in flow, 1:1 kinetic fit. As to the method:
(§1) In this example, G-CSFR (GCSF receptors) were immobilized onto the Sensor Chip CM5 (Biacore, trademarked) as the ligand. In each testing samples, Filgrastim RS (reference standard), MetHuG-CSF, and mPEG-MetHuG-CSF, as the analyte, were flowed through the ligand on CM5 chip respectively. The titration range of test sample analytes used in the assay was 40.5, 20.2, […], 10.1, 5.1, 2.5, 1.3 and 0.6 nM. Formulation buffers of testing samples were also tested as negative controls. The binding between the ligand and the analyte was monitored through SPR sensorgram. As slow-on and slow-off sensorgrams were observed, the kinetics fit model (“1:1 binding”) was used to obtain association constant (ka) and dissociation constant (kd), and KD was calculated by kd/ka.
On the technique in general: SPR reads the build-up and loss of mass on a sensor chip optically.

Experiment [2] has as its target T1, granulocyte colony-stimulating factor …. Put plainly: SPR (Biacore CM5), G-CSFR immobilised, analyte in flow, 1:1 kinetic fit, KD = kd/ka. The procedure:
as §1

The target is the same in experiment [3]. The experiment is described as follows: SPR (Biacore CM5), G-CSFR immobilised; KD divided by KD of Filgrastim RS. The procedure:
as §1
(§2) In Table 6 below, KD values of three testing samples towards G-CSFR were determined by SPR and summarized in the unit of molar concentration (M). For the KD ratio, the KD value of each testing sample was normalized with KD of Filgrastim RS.

Experiment [4] has the same target. The experiment is described as follows: SPR (Biacore CM5), G-CSFR immobilised; this sample is the reference itself. As to the method:
as §1, §2

B1: mPEG-MetHuG-CSF (ligand)
chain: MTPLGPASSLPQSFLLKCLEQVRKIQGDGAALQEKLCATYKLCHPEELVLLGHSLGIPWAPLSSCPSQALQLAGCLSQLHSGLFLYQGLLQALEGISPELGPTLDTLQLDVADFATTIWQQMEELGMAPALQPTQGAMPAFASAFQRRAGGVLVASHLQSFLEVSYRVLRHLAQP
modifications: branched mPEG (two arms, each about 19-23 KDa; 40K-mPEG-aldehyde) covalently attached by amine linkage to the N-terminal Met (residue 1)
notes: also called P2203
In experiment [1], B1 came in with a koff of 0.000401 s⁻¹ and an association rate constant (kon) of 408000 M⁻¹ s⁻¹. In addition, in experiment [2], the affinity, expressed as Kd, was 0.982 nM. Moreover, the “KD ratio (normalised to Filgrastim RS)” value in experiment [3] was 1.65.

B2: MetHuG-CSF (ligand)
chain: B1 chain
notes: 175 aa: the 174 aa human G-CSF plus an N-terminal Met; also called MetHuG-CSF intermediate; human G-CSF with additional N-terminal Met
With B2, in experiment [1], the koff was determined as 0.000469 s⁻¹ and the on-rate (kon) came to 657000 M⁻¹ s⁻¹. The molecule also came in with a Kd in experiment [2] of 0.713 nM. In addition, the “KD ratio (normalised to Filgrastim RS)” value in experiment [3] stood at 1.2.

B3: Filgrastim Reference Standard (ligand, human, UniProt P09919-2 31-204, looked up)
chain: TPLGPASSLPQSFLLKCLEQVRKIQGDGAALQEKLCATYKLCHPEELVLLGHSLGIPWAPLSSCPSQALQLAGCLSQLHSGLFLYQGLLQALEGISPELGPTLDTLQLDVADFATTIWQQMEELGMAPALQPTQGAMPAFASAFQRRAGGVLVASHLQSFLEVSYRVLRHLAQP
notes: also called Filgrastim RS
Turning to B3, in experiment [4], the “KD ratio (normalised to Filgrastim RS)” value was 1. In experiment [1], this molecule yielded an off-rate constant (koff) of 0.000444 s⁻¹ and a kon of 747000 M⁻¹ s⁻¹. Moreover, the Kd in experiment [2] was found to be 0.595 nM.
